Data taken from publication PMC2233886.
Values belong to the substance of their own block, whether it stands above or below them.

How the values were obtained:
eCFP-CNGB1 = eCFP-CNGB1 (UniProt Q28181); assay: FRET or BRET
[1] = target: heteromeric CNGA1/CNGB1 channels (UniProt Q00194); assay: patch-clamp fluorometry
CNGA1-eYFP = CNGA1-eYFP (UniProt Q00194); assay: FRET or BRET
Sequence of CNGA1-eYFP (Q00194 whole entry K2E): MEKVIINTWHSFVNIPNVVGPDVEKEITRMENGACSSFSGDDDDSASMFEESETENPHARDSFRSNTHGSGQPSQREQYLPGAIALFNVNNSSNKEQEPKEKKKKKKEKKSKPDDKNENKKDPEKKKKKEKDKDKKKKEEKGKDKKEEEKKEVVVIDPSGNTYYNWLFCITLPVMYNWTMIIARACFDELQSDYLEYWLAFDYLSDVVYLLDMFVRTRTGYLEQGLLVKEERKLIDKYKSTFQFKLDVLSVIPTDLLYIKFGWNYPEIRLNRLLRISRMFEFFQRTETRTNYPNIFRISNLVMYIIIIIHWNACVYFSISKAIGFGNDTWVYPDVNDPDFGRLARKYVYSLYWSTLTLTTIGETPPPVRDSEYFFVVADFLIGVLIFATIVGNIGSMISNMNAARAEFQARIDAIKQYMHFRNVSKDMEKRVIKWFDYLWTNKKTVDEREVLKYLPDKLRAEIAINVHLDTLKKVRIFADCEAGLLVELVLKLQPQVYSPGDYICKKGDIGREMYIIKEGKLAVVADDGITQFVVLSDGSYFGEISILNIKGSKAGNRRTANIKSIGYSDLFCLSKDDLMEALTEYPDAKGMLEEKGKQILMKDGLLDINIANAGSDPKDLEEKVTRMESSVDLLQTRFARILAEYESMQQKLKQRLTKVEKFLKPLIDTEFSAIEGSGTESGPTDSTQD

Sequence of heteromeric CNGA1/CNGB1 channels (Q00194 whole entry K2E, chain 1 of 2): as the sequence (Q00194 whole entry K2E) above
Sequence of heteromeric CNGA1/CNGB1 channels (Q28181 whole entry, chain 2 of 2, further chain): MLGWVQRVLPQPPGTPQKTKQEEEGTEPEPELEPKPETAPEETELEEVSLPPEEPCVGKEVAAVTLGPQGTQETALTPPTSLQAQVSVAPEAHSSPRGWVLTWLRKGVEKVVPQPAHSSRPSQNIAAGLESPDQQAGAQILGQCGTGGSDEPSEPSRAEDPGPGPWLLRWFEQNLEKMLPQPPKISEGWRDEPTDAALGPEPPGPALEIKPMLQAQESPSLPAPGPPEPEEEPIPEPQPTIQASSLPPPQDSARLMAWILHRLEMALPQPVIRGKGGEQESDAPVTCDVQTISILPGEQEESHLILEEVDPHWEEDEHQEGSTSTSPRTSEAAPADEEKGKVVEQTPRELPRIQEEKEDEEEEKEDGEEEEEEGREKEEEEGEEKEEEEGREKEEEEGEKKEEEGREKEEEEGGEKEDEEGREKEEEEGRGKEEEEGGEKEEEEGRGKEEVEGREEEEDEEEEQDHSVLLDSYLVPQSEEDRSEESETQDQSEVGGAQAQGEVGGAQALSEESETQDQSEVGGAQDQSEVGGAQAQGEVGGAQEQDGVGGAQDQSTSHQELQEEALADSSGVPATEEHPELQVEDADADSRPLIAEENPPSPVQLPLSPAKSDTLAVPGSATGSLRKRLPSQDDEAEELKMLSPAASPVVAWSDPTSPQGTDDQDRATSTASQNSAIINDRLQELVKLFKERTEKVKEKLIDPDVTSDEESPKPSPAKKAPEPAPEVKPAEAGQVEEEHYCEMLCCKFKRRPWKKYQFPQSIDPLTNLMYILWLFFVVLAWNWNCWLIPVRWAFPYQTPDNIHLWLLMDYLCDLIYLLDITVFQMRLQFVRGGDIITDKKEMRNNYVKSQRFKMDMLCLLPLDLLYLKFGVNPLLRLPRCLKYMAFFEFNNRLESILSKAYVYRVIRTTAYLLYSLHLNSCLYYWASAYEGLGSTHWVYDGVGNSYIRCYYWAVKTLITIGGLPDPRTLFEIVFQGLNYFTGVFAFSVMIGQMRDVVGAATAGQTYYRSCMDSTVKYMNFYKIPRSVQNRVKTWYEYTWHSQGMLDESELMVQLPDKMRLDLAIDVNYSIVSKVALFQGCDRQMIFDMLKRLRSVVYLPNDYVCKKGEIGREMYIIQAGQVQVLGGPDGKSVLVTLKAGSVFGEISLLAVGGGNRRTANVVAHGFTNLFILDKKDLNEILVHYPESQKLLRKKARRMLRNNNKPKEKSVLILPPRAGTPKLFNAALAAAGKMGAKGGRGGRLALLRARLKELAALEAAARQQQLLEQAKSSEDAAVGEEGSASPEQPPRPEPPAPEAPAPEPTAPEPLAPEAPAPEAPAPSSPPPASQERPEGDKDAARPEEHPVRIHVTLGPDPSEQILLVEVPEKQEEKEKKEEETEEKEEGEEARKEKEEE
Sequence of eCFPΔCaM-CNGB1 (Q28181 whole entry, stated change not applied, the tested form may be a part): as the sequence (Q28181 whole entry, chain 2 of 2, further chain) above
Sequence of eCFP-CNGB1 (UniProt Q28181) (Q28181 whole entry): as the sequence (Q28181 whole entry, chain 2 of 2, further chain) above
Sequence of eCFP-CNGB1 (from UniProt Q28181 677-1394) (domain or fragment) (Q28181 whole entry, the tested form may be a part): as the sequence (Q28181 whole entry, chain 2 of 2, further chain) above

- time constant of eCFP quenching (250 nM CaM-488) (eCFP-CNGB1): 24.6 s
- time constant of fluorescence decrease (washout in Ca2+-free solution) [1]: 51 s
- time constant of fluorescence increase (250 nM CaM-488) [1]: 18.5 s
Substance: CaM conjugated to the fluorescent dye Alexa-488 (from UniProt P62157 1-149) (natural protein)

- F530/F480 ratio (initial, before Ca2+/CaM) (CNGA1-eYFP): 1.8
Substance: eCFP-CNGB1 (from UniProt Q28181 677-1394) (domain or fragment)

- reduction in FRET against eCFP-CNGB1 (CNGA1-eYFP): 29%
Substance: eCFPΔCaM-CNGB1 (from UniProt Q28181 702-1394) (domain or fragment)
